Data reported in patent US20100048468A1 (Amgen, published 2010).
Where two headings read alike, the source gives them in different places. Positions of bridges follow the written chain, without caps; N, C: chain ends. No end group written: not given here.

Assays:
human GLP-1 receptor [1] = biological target: T1, human GLP-1 receptor (human, UniProt P43220 24-463); experiment: cell-based or functional assay
mouse GLP-1 receptor [2] = biological target: T2, mouse GLP-1 receptor (mouse, UniProt O35659 22-463); experiment: cell-based or functional assay
T2 sequence (looked up): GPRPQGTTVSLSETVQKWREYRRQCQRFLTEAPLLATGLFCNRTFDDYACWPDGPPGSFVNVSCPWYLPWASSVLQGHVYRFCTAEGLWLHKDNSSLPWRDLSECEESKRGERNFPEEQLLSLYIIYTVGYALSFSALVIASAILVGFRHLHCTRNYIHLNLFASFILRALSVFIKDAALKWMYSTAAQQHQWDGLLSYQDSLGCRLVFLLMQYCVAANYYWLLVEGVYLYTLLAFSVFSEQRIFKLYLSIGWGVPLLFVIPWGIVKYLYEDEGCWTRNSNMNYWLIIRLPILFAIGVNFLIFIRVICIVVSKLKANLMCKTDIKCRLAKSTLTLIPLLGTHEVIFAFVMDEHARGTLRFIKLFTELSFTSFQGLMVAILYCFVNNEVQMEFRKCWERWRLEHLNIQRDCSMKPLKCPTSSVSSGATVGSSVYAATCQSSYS

human GLP-1 receptor [3] = biological target: T1, human GLP-1 receptor; experiment: 125I-GLP-1 displacement, membranes of CHOK1 cells expressing human GLP-1 receptor
human GLP-1 receptor [4] = biological target: T1, human GLP-1 receptor; experiment: cell-based or functional assay; remark: listed apart in the source
human GLP-1 receptor [5] = biological target: T1, human GLP-1 receptor; experiment: 125I-GLP-1 displacement, membranes of CHOK1 cells expressing human GLP-1 receptor
Method: Membrane Preparation. […] Cells were sedimented at 1500 rpm for 10 minutes. The resulting pellets were homogenized in 15 mls of ice cold sucrose buffer (25 mM Tris-HCl, 0.32 M Sucrose, 0.25 g/L, sodium azide, pH 7.4) with a motorized, glass fitted, Teflon homogenizer. The homogenate was centrifuged at 48,000×g at 4° C. for 10 minutes, resuspended in 25 ml assay buffer (50 mM Tris-HCl, 5 mM MgCl₂, 10 mg/ml protease-free BSA, 0.1 mg/ml STI, and 0.1 mg/ml Pefabloc, pH 7.4) with a Tissue-Tearor (Biospec Products), then centrifuged again at 48,000×g for 10 minutes. The pellets were homogenized for a third time in 15 ml assay buffer using the Tissue-Tearor and again centrifuged at 48,000×g for 10 minutes. The resulting pellet was resuspended in assay buffer at a wet weight concentration of 4 mg/ml.
Ligand Binding Assay. Binding assays were performed in 96-well U-bottom plates. […] The reaction was terminated by rapid filtration through Unfilter-96 GF/C glass fiber filter plates (FilterMate 196 Packard Harvester, PerkinElmer, Shelton, Conn.) pre-soaked in 0.5% polyethylenimine, followed by three washes with 300 μl of cold 50 mM Tris-HCl, pH 7.4. Bound radioactivity was determined using a TopCount microplate scintillation and luminescence counter (Packard Instrument Company, PerkinElmer, Shelton, Conn.). […]

[6] = biological target: T3, human GLP-1 receptor (human), P43220; experiment: cell-based or functional assay
T3 chain: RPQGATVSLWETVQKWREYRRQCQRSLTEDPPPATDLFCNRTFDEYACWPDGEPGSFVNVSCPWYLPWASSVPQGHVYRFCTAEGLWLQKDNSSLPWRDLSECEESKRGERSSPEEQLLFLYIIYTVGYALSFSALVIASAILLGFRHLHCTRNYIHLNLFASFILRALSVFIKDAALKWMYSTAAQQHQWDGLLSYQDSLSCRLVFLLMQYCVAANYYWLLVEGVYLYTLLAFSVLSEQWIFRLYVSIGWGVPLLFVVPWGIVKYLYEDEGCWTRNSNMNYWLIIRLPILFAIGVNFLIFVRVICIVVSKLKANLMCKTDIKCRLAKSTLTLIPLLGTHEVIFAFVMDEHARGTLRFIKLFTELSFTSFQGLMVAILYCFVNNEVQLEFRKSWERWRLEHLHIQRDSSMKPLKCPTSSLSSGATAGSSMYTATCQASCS

[7] = biological target: T4, mouse GLP-1 receptor (mouse), O35659; experiment: cell-based or functional assay
T4 chain: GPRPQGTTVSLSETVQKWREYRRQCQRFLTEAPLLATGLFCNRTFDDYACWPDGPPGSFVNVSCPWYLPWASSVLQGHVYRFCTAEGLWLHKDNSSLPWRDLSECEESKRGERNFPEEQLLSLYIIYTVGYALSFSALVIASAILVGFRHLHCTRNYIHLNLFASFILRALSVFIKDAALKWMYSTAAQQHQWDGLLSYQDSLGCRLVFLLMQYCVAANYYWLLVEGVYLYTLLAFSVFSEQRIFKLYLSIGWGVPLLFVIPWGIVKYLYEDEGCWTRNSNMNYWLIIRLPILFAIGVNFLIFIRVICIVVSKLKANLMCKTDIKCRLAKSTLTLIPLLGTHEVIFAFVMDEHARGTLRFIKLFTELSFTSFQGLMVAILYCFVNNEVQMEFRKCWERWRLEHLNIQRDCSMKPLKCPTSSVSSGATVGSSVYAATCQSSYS

[8] = biological target: T3, human GLP-1 receptor (human), P43220; experiment: 125I-GLP-1 displacement, membranes of CHOK1 cells expressing human GLP-1 receptor
mouse GLP-1 receptor [9] = biological target: T2, mouse GLP-1 receptor; experiment: cell-based or functional assay; remark: listed apart in the source

HGEGT FTSDV SSYLE [Aib]QAAK EFIAW LVKGR-AMIDE (SEQ ID NO: 14) (peptide)
EC50 human (human GLP-1 receptor [1]): 0.016 nM
EC50 mouse (mouse GLP-1 receptor [2]): 0.15 nM
IC50 (human GLP-1 receptor [3]): 2.5 nM

B1: cycloE22-O26 (SEQ ID NO: 69) (peptide)
peptide: HGEGTFTSDVSSYLEEQAAXEFIAWLVKGRG
modifications: ornithine at position 26 (GLP-1 numbering; residue 20 of the entry); side-chain cyclic lactam between Glu22 and Orn26; C-terminal amide
notes: Not pegylated
EC50 human (human GLP-1 receptor [4]): 0.051 nM
IC50 (human GLP-1 receptor [5]): 3.7 nM

B2: cgGLP-10 (SEQ ID NO: 10 + 20k PEG dimer) (peptide)
peptide: HGEGTFTSDVSSYLEGQAAKEFIAWLVKGRGCSG
modifications: not checked
EC50 human [6]: 0.6 nM
EC50 mouse [7]: 4 nM
IC50 [8]: 100 nM

B3: GLP1(7-37) cyclo[Lys16-Glu20] (SEQ ID NO: 159) (peptide)
peptide: HGEGTFTSDVSSYLEKQAAEEFIAWLVKGRG-NH2
modifications: lactam 16-20; N-terminus assumed
SMILES: CC[C@H](C)[C@H](NC(=O)[C@H](Cc1ccccc1)NC(=O)[C@H](CCC(=O)O)NC(=O)[C@@H]1CCC(=O)NCCCC[C@H](NC(=O)[C@H](CCC(=O)O)NC(=O)[C@H](CC(C)C)NC(=O)[C@H](Cc2ccc(O)cc2)NC(=O)[C@H](CO)NC(=O)[C@H](CO)NC(=O)[C@@H](NC(=O)[C@H](CC(=O)O)NC(=O)[C@H](CO)NC(=O)[C@@H](NC(=O)[C@H](Cc2ccccc2)NC(=O)[C@@H](NC(=O)CNC(=O)[C@H](CCC(=O)O)NC(=O)CNC(=O)[C@@H](N)Cc2c[nH]cn2)[C@@H](C)O)[C@@H](C)O)C(C)C)C(=O)N[C@@H](CCC(N)=O)C(=O)N[C@@H](C)C(=O)N[C@@H](C)C(=O)N1)C(=O)N[C@@H](C)C(=O)N[C@@H](Cc1c[nH]c2ccccc12)C(=O)N[C@@H](CC(C)C)C(=O)N[C@H](C(=O)N[C@@H](CCCCN)C(=O)NCC(=O)N[C@@H](CCCNC(=N)N)C(=O)NCC(N)=O)C(C)C
EC50 human (human GLP-1 receptor [4]): 0.016 nM
EC50 mouse (mouse GLP-1 receptor [9]): 0.1 nM
